Test results: PMC8632972

Columns and labels:
[1] = target: SEC24A tagged with Myc; assay: PLA; conditions: n = 3 independent experiments, n = 8 independent images quantified; parent: est. 4.5; read off a plot
[2] = target: SCG5 tagged with cYFP (UniProt P27682); assay: PLA; conditions: n = 4 independent experiments, n = 8 independent images quantified; parent: est. 100; read off a plot
[3] = target: SCG5 tagged with cYFP (UniProt P27682); assay: BiFC quantified by flow cytometry; conditions: n = 5 independent experiments; parent: est. 100; read off a plot
[4] = target: NPY tagged with cYFP (UniProt P07808); assay: BiFC quantified by flow cytometry; conditions: n = 5 independent experiments; parent: est. 100; read off a plot
[5] = target: proinsulin tagged with C-terminal segment of YFP (cYFP) (UniProt P01322); assay: BiFC quantified by flow cytometry; conditions: n = 5 independent experiments; parent: est. 100; read off a plot
UniProt P01322, sequence (P01322 25-110): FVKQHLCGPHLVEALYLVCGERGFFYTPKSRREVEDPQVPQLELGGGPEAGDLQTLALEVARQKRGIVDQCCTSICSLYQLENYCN

[6] = target: CPE tagged with cYFP (UniProt P15087); assay: BiFC quantified by flow cytometry; conditions: n = 5 independent experiments; parent: est. 100; read off a plot
UniProt P15087, sequence (P15087 28-476): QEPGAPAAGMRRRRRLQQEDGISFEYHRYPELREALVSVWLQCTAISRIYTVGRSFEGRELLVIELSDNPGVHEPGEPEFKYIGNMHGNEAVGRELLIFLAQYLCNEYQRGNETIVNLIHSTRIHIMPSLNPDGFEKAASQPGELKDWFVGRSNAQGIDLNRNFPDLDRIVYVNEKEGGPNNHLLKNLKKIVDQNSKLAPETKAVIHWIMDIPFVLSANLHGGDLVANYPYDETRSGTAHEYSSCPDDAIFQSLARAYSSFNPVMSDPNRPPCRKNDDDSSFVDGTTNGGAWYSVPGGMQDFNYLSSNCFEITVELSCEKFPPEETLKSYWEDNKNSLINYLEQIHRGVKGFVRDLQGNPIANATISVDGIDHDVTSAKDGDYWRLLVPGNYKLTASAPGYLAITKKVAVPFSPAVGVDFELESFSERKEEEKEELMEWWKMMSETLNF

UniProt P27682, sequence (P27682 25-210): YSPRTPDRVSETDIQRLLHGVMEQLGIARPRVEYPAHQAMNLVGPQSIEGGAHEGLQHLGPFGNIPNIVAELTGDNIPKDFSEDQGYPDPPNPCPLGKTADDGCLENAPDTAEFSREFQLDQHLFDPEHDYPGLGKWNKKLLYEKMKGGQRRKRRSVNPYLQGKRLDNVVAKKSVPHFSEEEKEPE

| Substance | response (puncta (>1µm2) per cell) [1] | response (puncta (>1µm2) per cell) [2] | percent of parent [3] [%] | percent of parent [4] [%] | percent of parent [5] [%] | percent of parent [6] [%] |
| --- | --- | --- | --- | --- | --- | --- |
| HA-tagged WFS1 E158K | 0.13 |  |  |  |  |  |
| HA-tagged WFS1 E169K | 0.13 |  |  |  |  |  |
| HA-tagged WFS1 E809K |  | 56 |  |  |  |  |
| HA-tagged WFS1 E830A |  | 7 |  |  |  |  |
| HA-tagged WFS1 G695V |  | 35 |  |  |  |  |
| HA-tagged WFS1 P724L |  | 55 |  |  |  |  |
| WFS1 tagged with N-terminal segment of YFP (nYFP) E809K |  |  | 71 | 41 | 70 | 46 |
| WFS1 tagged with N-terminal segment of YFP (nYFP) E830A |  |  | 8 | 3 | 23 | 2 |
| WFS1 tagged with N-terminal segment of YFP (nYFP) G695V |  |  | 56 | 33 | 42 | 41 |
| WFS1 tagged with N-terminal segment of YFP (nYFP) P724L |  |  | 54 | 49 | 61 | 71 |
